Experiment [1] deals with RBD (amino acids 340-538 NITN.GPKK) expressed on the surface of MDCK-SIAT1 cells (SARS-CoV-2) (UniProt P0DTC2).
Experiment [2] has as its target RBD-6H (amino acid 340-538; NITN.GPKK), biotinylated (SARS-CoV-2) (UniProt P0DTC2).
For experiment [3] the target is unchanged. The source holds these as a separate data set.

Where two headings read alike, the source gives them in different places.

Regarding VHH72-Fc (Fc fusion), the concentration for half-maximal inhibition (IC50) in experiment [1] came out at 33 nM; in experiment [2], 262 nM.
In turn, CR3022-Fc (antibody) displayed an IC50 in experiment [3] of 803 nM.
For the substance H11-H4-Fc (Fc fusion), the IC50 in experiment [1] came out at 34 nM; in experiment [2] it was 61 nM.

The record behind these values is patent publication US20230348572A1.
